Experimental data as given in patent US7223734B2, “Plasma protein-binding ligands” (The American National Red Cross, priority 2002, dated 2007).
Values joined by “and” are separate entries in the source; they are usually repeats but may differ in a detail not shown here. Identical values can stand only once. Non-standard residues stand in square brackets, D forms with d. No end group written: not given here.

Legend:
[1] = target: T1, API (Homo sapiens, UniProt P01009); assay: Preparation of fibrinogen- and Apo-A1-depleted plasma: API in flow-through (Example 5); assay type: binding; settings: after chromatography on the named resin
T1 construct: from tissue; host or cells: human plasma (whole, fibrinogen-depleted or F1-Apo-depleted)
T1 sequence (P01009 25-418): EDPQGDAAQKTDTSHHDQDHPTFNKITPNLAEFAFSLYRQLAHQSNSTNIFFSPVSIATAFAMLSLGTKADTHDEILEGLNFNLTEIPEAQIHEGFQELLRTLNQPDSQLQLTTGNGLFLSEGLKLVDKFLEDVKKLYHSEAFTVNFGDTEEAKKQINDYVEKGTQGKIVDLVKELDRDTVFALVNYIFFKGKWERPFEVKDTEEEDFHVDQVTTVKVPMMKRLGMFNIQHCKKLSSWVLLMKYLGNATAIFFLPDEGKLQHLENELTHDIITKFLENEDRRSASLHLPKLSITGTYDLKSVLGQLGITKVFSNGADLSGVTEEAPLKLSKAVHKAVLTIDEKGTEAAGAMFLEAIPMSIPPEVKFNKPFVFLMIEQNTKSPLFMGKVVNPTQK
Procedure: (§1) Toyopearl AF Amino 650M resin displaying a peptide consisting essentially of the amino acid sequence D-ARQFDF (SEQ ID NO: 20) was suspended for 2 hours in 20% methanol. After washing with distilled water, the resin was packed into an Omni column (column volume (CV)=10 ml; diameter 1.5 cm; CF 1.77 cm^2) and equilibrated in 0.14 M NaCl, 0.020 M sodium citrate, pH 7.0 (EQ buffer). Fifty milliliters of filtered plasma (0.80 mm, Nalgene CN, Cat. No. 380-0080; 0.45 μm, Corning CA, Cat. No. 431155; 0.20 μm, Nalgene PES, Cat. No. 165-0020) were loaded on the Omni columns at a linear velocity (LV) of 50 cm/H (flow rate (FR)=1.5 ml/min; residence time (RT)=6.7 minutes). The flow-through was collected in column volumes. After pooling fibrinogen-depleted plasma (50 ml), the flow-through was loaded onto a column comprising a resin displaying an Apo-A1 lipoprotein-binding ligand (D-WWLHIN (SEQ ID NO: 33)), as described below. The fibrinogen-binding column was washed with 12 CVs of EQ buffer and the fibrinogen eluted with 10 CVs of 0.3 M glycine, 0.5 M NaCl, pH 9.0. The column was regenerated with 10 CVs of 2% Sarkosyl, pH 8.0, followed by 10 CVs of 2.0 M guanidine (GuHCl). After washing with 5 CVs of distilled water, the column was further cleaned with 6 CVs of 30% ethanol and 6 CVs of 70% ethanol containing 2% acetic acid. […]

[2] = test system: paraoxonase; settings: after 1 hour incubation with resin at 37° C.; rabbit serum diluted 1/10
Procedure: Paraoxonase binding to a WWLHAN (SEQ ID NO: 56)-displaying resin was evaluated according to the following protocol. Rabbit serum diluted 1/10 times with PBS ([…]) was incubated in a rotating Eppendorf tube with 50 μl of D-WWLHAN (SEQ ID NO: 56)-displaying resin suspension containing approximately […] of resin. The resin was previously soaked in 20% methanol overnight and washed 3 times with PBS to remove the methanol traces and resuspended in paraoxonase assay buffer (20 mM Tris pH 8.0, 150 mM NaCl, and 2 mM CaCl2). After 1 hour incubation at 37° C., resin beads were precipitated by centrifugation at 8000 g for 1 min in an Eppendorf microcentrifuge. Supernatants were transferred into separate Eppendorf tubes and resin bead pellets were resuspended in equal volumes of paraoxonase assay buffer. Paraoxonase activity of resin bead suspensions and supernatant solutions was measured. In particular, 100 μl of paraoxonase assay buffer containing 100 μm of DEPFMU (a fluorogenic substrate for paraoxonase detection) was mixed with […] of supernatant or 10 μl of resin bead suspension, or the original serum solution in a standard microtiter plate well. After thorough mixing, the plate solution was incubated for 20 minutes at 37° C. Hydrolysis of DEPFMU was quantified by measuring the fluorescence level at […] using a commercial fluorometer. The level of fluorescence correlates with the level of 6,8-difluoro-4-methylumbelliferyl released from DEPFMU as a result of paraoxonase-mediated hydrolysis. The actual amount of 6,8-difluoro-4-methylumbelliferyl released in the assay can be calibrated with a known amount of 6,8-difluoro-4-methylumbelliferyl.
Several different D-WWLHIN (SEQ ID NO: 33) analogs were screened for the ability to bind to paraoxonase under the conditions described in Example 7. For this experiment, the following resins were tested: WWLHAN (SEQ ID NO: 56), AWLHIN (SEQ ID NO: 59), WALHIN (SEQ ID NO: 60), WWAHIN (SEQ ID NO: 61), WWLHIA (SEQ ID NO: 63), WYLHIN (SEQ ID NO: 35), WWLFIN (SEQ ID NO: 36), and na1′WLHIN (SEQ ID NO: 40).

[3] = target: T2, Apo-A1 lipoprotein (Homo sapiens, UniProt P02647); assay: Apo-A1 lipoprotein purification from fibrinogen-depleted plasma on peptide resin column (Example 4); assay type: binding
T2 construct: from tissue; host or cells: human plasma (whole or fibrinogen-depleted)
T2 sequence (P02647 25-267 limits assumed): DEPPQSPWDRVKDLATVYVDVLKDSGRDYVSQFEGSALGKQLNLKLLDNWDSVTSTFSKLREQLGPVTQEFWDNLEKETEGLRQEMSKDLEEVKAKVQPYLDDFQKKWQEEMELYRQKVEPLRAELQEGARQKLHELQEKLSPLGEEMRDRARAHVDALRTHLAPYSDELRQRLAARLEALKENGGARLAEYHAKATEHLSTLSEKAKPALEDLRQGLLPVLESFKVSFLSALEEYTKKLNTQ
Procedure: Apo-A1 lipoprotein purification was accomplished with D-WWLHIN (SEQ ID NO: 33) peptides and several analogs. Indeed, about 100% Apo-A1 lipoprotein depletion from plasma was repeatedly obtained with D-WWLHAN (SEQ ID NO: 56) and D-WWLHIN (SEQ ID NO: […]). Fourteen milliliters of fibrinogen-depleted plasma was loaded onto a 2.3 ml column (CF=0.785 cm^2) at 0.4 ml/min. (LV=30 cm/H; RT=5.8) that had been equilibrated with 0.14 M NaCl, 0.020 M sodium citrate, pH 7.0 (EQ buffer). After the column was washed with EQ buffer to baseline, Apo-A1 lipoprotein was eluted with 2.0 M NaCl, 1% Tween-20, 0.020M sodium citrate, pH 7.0. The column was regenerated with 2.0 M guanidine-HCl, 2% Sarkosyl, and 2% acetic acid and stored in 20% methanol.

[4] = test system: Apo-A1 lipoprotein; assay: Preparation of fibrinogen- and Apo-A1-depleted plasma: Apo-A1 in flow-through (Example 5); assay type: binding, human
Procedure: as §1

[5] = test system: paraoxonase; settings: without use of detergent
Text: Paraoxonase, or any plasma protein, can be recovered from the isolated or purified peptide of the invention coupled to a bead (i.e., a support) by several different approaches, including washing beads with buffers with high and low ionic strength, high and low pH, or buffers comprising up to 50% of ethylene glycol and different detergents.

[6] = target: T3, fibrinogen (Homo sapiens, UniProt P02671+P02675+P02679); assay: Purification of fibrinogen from plasma on HWQ resin column (Example 3); assay type: binding
T3 construct: from tissue; host or cells: human plasma
T3 sequence (P02671 20-629 limits assumed): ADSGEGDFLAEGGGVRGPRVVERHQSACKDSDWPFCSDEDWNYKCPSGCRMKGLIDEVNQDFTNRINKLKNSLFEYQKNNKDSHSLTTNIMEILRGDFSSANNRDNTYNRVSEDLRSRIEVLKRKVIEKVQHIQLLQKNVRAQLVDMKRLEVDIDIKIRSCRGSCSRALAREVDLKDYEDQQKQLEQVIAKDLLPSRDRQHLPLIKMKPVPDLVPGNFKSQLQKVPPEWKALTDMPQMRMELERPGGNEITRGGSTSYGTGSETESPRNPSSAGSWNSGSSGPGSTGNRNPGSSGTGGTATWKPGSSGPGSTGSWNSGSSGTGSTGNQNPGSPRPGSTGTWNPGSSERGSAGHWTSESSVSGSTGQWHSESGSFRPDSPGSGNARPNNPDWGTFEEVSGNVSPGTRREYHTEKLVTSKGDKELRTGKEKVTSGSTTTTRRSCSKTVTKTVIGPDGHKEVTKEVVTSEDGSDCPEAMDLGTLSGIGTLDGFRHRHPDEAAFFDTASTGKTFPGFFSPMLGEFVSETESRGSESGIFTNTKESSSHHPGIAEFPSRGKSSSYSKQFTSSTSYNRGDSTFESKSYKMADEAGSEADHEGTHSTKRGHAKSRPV
T3 sequence (P02675 31-491): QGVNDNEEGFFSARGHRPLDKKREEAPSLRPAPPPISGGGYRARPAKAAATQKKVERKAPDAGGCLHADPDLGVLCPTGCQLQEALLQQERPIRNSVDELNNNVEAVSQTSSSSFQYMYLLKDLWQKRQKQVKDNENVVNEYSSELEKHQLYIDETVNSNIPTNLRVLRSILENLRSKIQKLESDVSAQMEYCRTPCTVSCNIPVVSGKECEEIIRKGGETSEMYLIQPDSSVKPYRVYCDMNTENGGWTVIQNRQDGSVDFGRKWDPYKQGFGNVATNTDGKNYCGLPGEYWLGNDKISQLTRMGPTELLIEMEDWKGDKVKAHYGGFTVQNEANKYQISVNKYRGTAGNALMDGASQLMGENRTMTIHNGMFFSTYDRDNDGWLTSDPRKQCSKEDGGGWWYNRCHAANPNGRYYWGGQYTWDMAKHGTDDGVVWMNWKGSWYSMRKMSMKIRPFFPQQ
T3 sequence (P02679 27-433 limits assumed): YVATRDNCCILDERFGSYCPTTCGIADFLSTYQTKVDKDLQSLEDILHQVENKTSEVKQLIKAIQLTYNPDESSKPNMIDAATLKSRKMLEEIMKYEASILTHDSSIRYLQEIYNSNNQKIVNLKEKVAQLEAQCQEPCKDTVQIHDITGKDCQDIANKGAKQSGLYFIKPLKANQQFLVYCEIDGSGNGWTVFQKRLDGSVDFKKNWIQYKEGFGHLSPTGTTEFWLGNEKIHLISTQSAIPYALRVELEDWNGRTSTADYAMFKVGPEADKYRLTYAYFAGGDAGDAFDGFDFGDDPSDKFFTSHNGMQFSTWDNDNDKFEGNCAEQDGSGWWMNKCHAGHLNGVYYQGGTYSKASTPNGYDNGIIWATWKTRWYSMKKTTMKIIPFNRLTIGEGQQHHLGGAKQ
Procedure: Five milliliters of plasma was applied at a flow rate of 0.2 ml/min. onto a 0.8 ml column (RT=4.0 min) containing a resin displaying the HWQ ligand, and was equilibrated with 0.14 M NaCl, 0.020M sodium citrate, pH 7.0 (EQ buffer). After washing the resin with EQ buffer and 0.5 M NaCl, pH 7.0, to baseline, the bound fibrinogen was eluted with 2.0 M NaCl, pH 7.0 or 0.3 M glycine, 0.5M NaCl, pH 9.0. All of the wash and elution buffers contained 0.020 M sodium citrate. […] However, dynamic resin capacities of 5–8 mg were reached. The resin was regenerated with 2 M guanidine-HCl, 2% Sarkosyl, 30% ethanol and 70% ethanol/2% acetic acid, followed by storage in 20% methanol.

[7] = target: T3, fibrinogen; assay: Preparation of fibrinogen- and Apo-A1-depleted plasma: fibrinogen capture (Example 5); assay type: binding; settings: nephelometric and clotting analysis
Procedure: as §1

[8] = target: T3, fibrinogen; assay: Purification of fibrinogen from plasma by affinity chromatography on D-ARQFDF resin (Example 2); assay type: binding
Procedure: ToyoPearl AF-Amino 650 M resin beads displaying dried D-ARQFDF (SEQ ID NO: 20) peptide via an epsilon amino caproic acid (EACA) spacer were suspended in 20% methanol for a minimum of 2 hours before equilibration in 0.12–0.15 M NaCl, 0.020 M sodium citrate, pH 6.5–7.5. For 2.0–2.1 ml columns, about […] of resin was obtained. The resin was subsequently packed in an Omni Column of 1.0–1.5 cm diameter and evaluated either on an ÄKTAExplorer System or BIO RAD BioLogic LP. Optical density at 280 nm–320 nm and conductivity was constantly monitored during the evaluations. Flow rates were selected according to column size to achieve linear velocities of 30–60 cm/hour and residence times between 5–8 minutes.
All evaluations were performed at room temperature with cryo-rich plasma that had been 0.8 μm and 0.45 μm filtered. A linear velocity (LV) of […] was maintained throughout the experiments. Fifty milliliters of plasma was applied at 1.5 ml/min (RT=6.7) onto 10 ml column (height 5.7 cm, CF=1.77 cm^2) that had been equilibrated with 0.14 M NaCl, 0.020 M sodium citrate, pH 7.0 (EQ buffer). After the column was washed with EQ buffer to baseline, the fibrinogen was eluted with 0.3 M glycine, 0.5 M NaCl at pH 9.0 (10 CV). The column was regenerated with 2% Sarkosyl, 2.0 M guanidine-HCl, 30% ethanol, followed by a 70% ethanol/2% acetic acid mixture and stored in 20% methanol.

## WWLHAN ([dW]WLHAN; not fully specified (residues 2, 3, 4, 5, 6)) [D-WWLHAN]
[1]
  API recovered in the flow-through: 90–95%
[2]
  original paraoxonase activity remaining in the serum: less than 4%
[3]
  Apo-A1 lipoprotein depletion from plasma: about 100%
[4]; nephelometry and SDS-PAGE analysis
  Apo-A1 lipoprotein detection after treating with the resin: no Apo-A1 lipoprotein could be detected
[5]
  paraoxonase activity eluted from the beads into the supernatant: No paraoxonase activity was eluted

## HWQ
[6]; 2.0 M NaCl, pH 7.0 or 0.3 M glycine, 0.5M NaCl, pH 9.0
  elution of bound fibrinogen: Complete elution of fibrinogen was not achieved
[6]; 5 ml plasma on 0.8 ml column
  dynamic resin capacities: 5 to 8 mg

## D-ARQFDF ([dA]RQFDF; not fully specified (residues 2, 3, 4, 5, 6, C-terminus))
[1]
  API recovered in the flow-through: 100%
[4]; after treatment with the named resin
  Apo-A1 lipoprotein detected in the flow-through: Ninety
[7]
  fibrinogen captured: 100%
[8]; Elution, plasma load 51 mg
  Total Fibrinogen: 54 mg and 46 mg
[8]; Flow thru + Post wash, fibrinogen antigen (nephelometric analysis), plasma load 25 ml, 2.04 mg/ml
  Fibrinogen: <0.15 mg/mL
[8]; resin reuse
  runs with minimal changes in performance, dynamic resin capacity, or purity of fibrinogen eluates: over 15 runs
[8]; resin-to-plasma ratios of 1:3.5 to 1:4.5, peptide ligand densities 0.67–0.94 mmol/g resin
  dynamic resin capacity: 6–8 g/L of resin
